Where “and” joins values, the source holds several entries; their conditions need not be identical. Identical values can stand only once.
Experiments:
[1] = molecular target: HtrACj S197A, expressed without the predicted signal peptide (residues 17-472), protease-inactive mu (Campylobacter jejuni (strain 81-176)); assay: cryo-EM structure
[2] = molecular target: HtrACj S197A, proteolytically inactive variant (plasmid pUZCj5) (Campylobacter jejuni (strain NCTC11168)) (UniProt Q0P928); assay: SEC; Superose 12HR10/30, 50 mM Na2HPO4/NaH2PO4 pH 7.4, 300 mM NaCl, room temperature, 41 µM HtrA, no substrate; S/A mutants purified in presence of urea and refolded
[3] = molecular target: HtrACj S197A, proteolytically inactive variant (plasmid pUZCj5) (Campylobacter jejuni (strain NCTC11168)) (UniProt Q0P928); assay: as above; remark: listed apart in the source
[4] = molecular target: HtrACj S197A, proteolytically inactive variant (plasmid pUZCj5) (Campylobacter jejuni (strain NCTC11168)) (UniProt Q0P928); assay: SEC; Superose 12HR10/30, 50 mM Na2HPO4/NaH2PO4 pH 7.4, 300 mM NaCl, room temperature, 41 µM HtrA, no substrate; proteins purified under native conditions without refolding step
[5] = molecular target: HtrACj wild type, proteolytically active (plasmid pUZCj4) (Campylobacter jejuni (strain NCTC11168)) (UniProt Q0P928); assay: SEC; Superose 12HR10/30, 50 mM Na2HPO4/NaH2PO4 pH 7.4, 300 mM NaCl, room temperature; 41 µM HtrA pre-incubated with 41 µM β-casein (molar ratio 1:1) for 10 min at 37°C
[6] = molecular target: HtrACj wild type, proteolytically active (plasmid pUZCj4) (Campylobacter jejuni (strain NCTC11168)) (UniProt Q0P928); assay: SEC; Superose 12HR10/30, 50 mM Na2HPO4/NaH2PO4 pH 7.4, 300 mM NaCl, room temperature, 41 µM HtrA, no substrate; proteins purified under native conditions without refolding step
[7] = molecular target: HtrACj wild type, proteolytically active (plasmid pUZCj4) (Campylobacter jejuni (strain NCTC11168)) (UniProt Q0P928); assay: casein zymography (non-reducing SDS-PAGE); 50 ng purified HtrA in Laemmli buffer on 10% SDS-PAGE gels with 0.1% casein, non-reducing, renatured in 2.5% Triton X-100, developed overnight at 37°C
[8] = molecular target: HtrAHp S221A, proteolytically inactive variant of HtrA from H. pylori 26695 (plasmid pUZ3) (Helicobacter pylori (strain 26695)); assay: SEC; Superose 12HR10/30, 50 mM Na2HPO4/NaH2PO4 pH 7.4, 300 mM NaCl, room temperature, 41 µM HtrA, no substrate; S/A mutants purified in presence of urea and refolded
[9] = molecular target: the molecule itself; assay: as above

For “HtrACj S197A, expressed without the predicted signal peptide (residues 17-472), protease-inactive mu (enzyme)”, the stoichiometry N [1] was 12.

With “HtrACj S197A, proteolytically inactive variant (plasmid pUZCj5) (from UniProt Q0P928 1-472) (enzyme)” the stoichiometry N [2] was 12, the stoichiometry N [3] was over 12 and the stoichiometry N [4] was 12.

Molecule “HtrACj wild type, proteolytically active (plasmid pUZCj4) (from UniProt Q0P928 1-472) (enzyme)” has a stoichiometry N [5] of 6, a stoichiometry N [6] of 6 and a stoichiometry N [7] of 3.

With “HtrAHp S221A, proteolytically inactive variant of HtrA from H. pylori 26695 (plasmid pUZ3) (enzyme)” the stoichiometry N [8] was 3 and 6.

B1: HtrAEc S210A, proteolytically inactive variant of HtrA/DegP from E. coli (plasmid pJS17) (enzyme, UniProt P0C0V0 27-474, looked up)
chain: AETSSATTAQQMPSLAPMLEKVMPSVVSINVEGSTTVNTPRMPRNFQQFFGDDSPFCQEGSPFQSSPFCQGGQGGNGGGQQQKFMALGSGVIIDADKGYVVTNNHVVDNATVIKVQLSDGRKFDAKMVGKDPRSDIALIQIQNPKNLTAIKMADSDALRVGDYTVAIGNPFGLGETVTSGIVSALGRSGLNAENYENFIQTDAAINRGNAGGALVNLNGELIGINTAILAPDGGNIGIGFAIPSNMVKNLTSQMVEYGQVKRGELGIMGTELNSELAKAMKVDAQRGAFVSQVLPNSSAAKAGIKAGDVITSLNGKPISSFAALRAQVGTMPVGSKLTLGLLRDGKQVNVNLELQQSSQNQVDSSSIFNGIEGAEMSNKGKDQGVVVNNVKTGTPAAQIGLKKGDVIIGANQQAVKNIAELRKVLDSKPSVLALNIQRGDSTIYLLMQ
notes: also called S/A mutant of HtrAEc
B1 was tested, and the “stoichiometry N” value [9] was 6.
